Data as given in paper PMC12455665, “Convergent construction of N-terminally modified CCL5 chemokines for photoaffinity receptor pull-down using cross-aldol bioconjugations” (RSC Chemical Biology, 2025).

Molecular target: T1, CCR5 chemokine receptor on CHO-CCR5 cells (UniProt P51681 1-352)
T1 construct: also called the receptor; source: Chinese hamster ovary cell line (CHO), stably expressing CCR5
Assay: not stated; receptor binding of CCL5 P2G against wild-type CCL5 (Fig. S14); methods in the SI, not shown

T1 sequence (P51681 whole entry): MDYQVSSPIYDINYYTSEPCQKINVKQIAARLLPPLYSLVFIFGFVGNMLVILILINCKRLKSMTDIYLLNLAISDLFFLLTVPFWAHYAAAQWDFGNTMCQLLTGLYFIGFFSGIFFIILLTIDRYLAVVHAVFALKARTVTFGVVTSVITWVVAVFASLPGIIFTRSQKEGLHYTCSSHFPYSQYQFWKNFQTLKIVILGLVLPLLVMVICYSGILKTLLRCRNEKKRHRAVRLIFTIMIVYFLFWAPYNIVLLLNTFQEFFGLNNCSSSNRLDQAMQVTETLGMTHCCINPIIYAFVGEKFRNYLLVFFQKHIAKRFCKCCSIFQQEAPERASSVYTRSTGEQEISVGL

B1: CCL5 P2G 1 (ligand, human, UniProt P13501 24-91, looked up)
chain: SGYSSDTTPCCFAYIARPLPRAHIKEYFYTSGKCSNPAVVFVTRKNRQVCANPEKKWVREYINSLEMS
notes: Human C–C chemokine ligand 5 (CCL5, RANTES), with its native N-terminal serine after traceless SUMO cleavage, point mutant P2G; also called CCL5 point mutant (P2G); CCL5 P2G variant; source: E. coli SHuffle LysY, purified (His-SUMO tag capture, SUMO protease cleavage); not shown: His, N-terminal, cleaved; SUMO, N-terminal, cleaved
  fold reduction of binding against wild-type CCL5: 3 fold
